Experimental data from patent publication US20160272680A1 (Bristol-Myers Squibb, published 2016).
Bridge positions count the residues as written; N and C are the ends. Square brackets hold non-standard residues; d marks the D form. Hyp = O=C(O)[C@@H]1C[C@@H](O)CN1; NMeNle = CCCC[C@H](NC)C(=O)O; NMeA = CN[C@@H](C)C(=O)O; Dap = NC[C@H](N)C(=O)O

Assays:
[1] = molecular target: T1, hPDL1(19-239)-TVMV-His (human, UniProt Q9NZQ7 19-239); assay: HTRF competition of PD-1-Ig binding to PD-L1-His
T1 construct: Expressed in HEK293T cells; The text says amino acids 18-239, but the construct is named hPD-L1(19-239); The whole entry, including the TVMV site and His tag, is the protein used in the assay; also called PD-L1-TVMV-His; PD-L1-His
Method: Homogenous Time-Resolved Fluorescence (HTRF) Assays of Binding of Soluble PD-1 to Soluble PD-L1. Soluble PD-1 and soluble PD-L1 refers to proteins with carboxyl-end truncations that remove the transmembrane-spanning regions and are fused to heterologous sequences, specifically the Fc portion of the human immunoglobuling G sequence (Ig) or the hexahistidine epitope tag (His). All binding studies were performed in an HTRF assay buffer consisting of dPBS supplemented with 0.1% (w/v) bovine serum albumin and 0.05% (v/v) Tween-20. For the PD-1-Ig/PD-L1-His binding assay, inhibitors were pre-incubated with PD-L1-His (10 nM final) for 15 m in 4 μl of assay buffer, followed by addition of PD-1-Ig (20 nM final) in 1 μl of assay buffer and further incubation for 15 m. PD-L1 fusion proteins from either human, cynomologous macaques, mouse, or other species were used. HTRF detection was achieved using europium crypate-labeled anti-Ig monoclonal antibody (1 nM final) and allophycocyanin (APC) labeled anti-His monoclonal antibody (20 nM final). Antibodies were diluted in HTRF detection buffer and 5 μl was dispensed on top of binding reaction. The reaction was allowed to equilibrate for 30 minutes and signal (665 nm/620 nm ratio) was obtained using an EnVision fluorometer. Additional binding assays were established between PD-1-Ig/PD-L2-His (20 and 5 nM, respectively), CD80-His/PD-L1-Ig (100 and 10 nM, respectively) and CD80-His/CTLA4-Ig (10 and 5 nM, respectively). Binding/competition studies between biotinylated Compound No. 71 and human PD-L1-His were performed as follows. Macrocyclic peptide inhibitors were pre-incubated with PD-L1-His (10 nM final) for 60 minutes in 4 μl of assay buffer followed by addition of biotinylated Compound No. 71 (0.5 nM final) in 1 μl of assay buffer. Binding was allowed to equilibrate for 30 minutes followed by addition of europium crypated labeled Streptavidin (2.5 pM final) and APC-labeled anti-His (20 nM final) in 5 μl of HTRF buffer. […]

[2] = molecular target: T1, hPDL1(19-239)-TVMV-His; assay: HTRF competition of PD-1-Ig binding to PD-L1-His; code B=0.004-0.0099 µM
Method: Homogenous Time-Resolved Fluorescence (HTRF) Assays of Binding of Soluble PD-1 to Soluble PD-L1. Soluble PD-1 and soluble PD-L1 refers to proteins with carboxyl-end truncations that remove the transmembrane-spanning regions and are fused to heterologous sequences, specifically the Fc portion of the human immunoglobuling G sequence (Ig) or the hexahistidine epitope tag (His). All binding studies were performed in an HTRF assay buffer consisting of dPBS supplemented with 0.1% (w/v) bovine serum albumin and 0.05% (v/v) Tween-20. For the PD-1-Ig/PD-L1-His binding assay, inhibitors were pre-incubated with PD-L1-His (10 nM final) for 15 m in 4 μl of assay buffer, followed by addition of PD-1-Ig (20 nM final) in 1 μl of assay buffer and further incubation for 15 m. PD-L1 fusion proteins from either human, cynomologous macaques, mouse, or other species were used. HTRF detection was achieved using europium crypate-labeled anti-Ig monoclonal antibody (1 nM final) and allophycocyanin (APC) labeled anti-His monoclonal antibody (20 nM final). Antibodies were diluted in HTRF detection buffer and 5 μl was dispensed on top of binding reaction. The reaction was allowed to equilibrate for 30 minutes and signal (665 nm/620 nm ratio) was obtained using an EnVision fluorometer. Additional binding assays were established between PD-1-Ig/PD-L2-His (20 and 5 nM, respectively), CD80-His/PD-L1-Ig (100 and 10 nM, respectively) and CD80-His/CTLA4-Ig (10 and 5 nM, respectively). Binding/competition studies between biotinylated Compound No. 71 and human PD-L1-His were performed as follows. Macrocyclic peptide inhibitors were pre-incubated with PD-L1-His (10 nM final) for 60 minutes in 4 μl of assay buffer followed by addition of biotinylated Compound No. 71 (0.5 nM final) in 1 μl of assay buffer. Binding was allowed to equilibrate for 30 minutes followed by addition of europium crypated labeled Streptavidin (2.5 pM final) and APC-labeled anti-His (20 nM final) in 5 μl of HTRF buffer. The reaction was allowed to equilibrate for 30 m and signal (665 nm/620 nm ratio) was obtained using an EnVision fluorometer.

T1 sequence (Q9NZQ7 other isoform, or with tags, fused parts or gaps limits assumed): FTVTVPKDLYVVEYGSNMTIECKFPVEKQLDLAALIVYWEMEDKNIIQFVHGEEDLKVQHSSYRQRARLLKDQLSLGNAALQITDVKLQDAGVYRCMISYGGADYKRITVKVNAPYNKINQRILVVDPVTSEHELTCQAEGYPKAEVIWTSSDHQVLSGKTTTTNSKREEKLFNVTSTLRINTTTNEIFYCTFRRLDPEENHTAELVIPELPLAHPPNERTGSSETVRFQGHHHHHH

{CH2CO}-Y[NMeA]NP[Dap]L[Hyp]WGW[NMeNle][NMeNle]LCG-{4‑phenylpiperidine amide} (thioether N-14, Macrocyclic peptide) [Example 13088]
IC50 [1]: 50 nM

{CH2CO}-Y[NMeA]NP[Dap]L[Hyp]WGW[NMeNle][NMeNle]LCG-{N‑(3-aminopropyl)morpholine amide} (thioether N-14, Macrocyclic peptide) [Example 13093]
IC50 [1]: 8.17 nM

{CH2CO}-Y[NMeA]NP[Dap]L[Hyp]WGW[NMeNle][NMeNle]LCG-{methyl 3‑aminopropionate} (thioether N-14, Macrocyclic peptide) [Example 13105]
IC50 [1]: 10 nM

{CH2CO}-Y[NMeA]NP[Dap]L[Hyp]WGW[NMeNle][NMeNle]LCG-{piperazin‑2‑one} (thioether N-14, Macrocyclic peptide) [Example 13114]
IC50 [2]: 4 to 9.9 nM

{CH2CO}-Y[NMeA]NP[Dap]L[Hyp]WGW[NMeNle][NMeNle]LCG-phenylpiperazine (thioether N-14, Macrocyclic peptide) [Example 13117]
IC50 [2]: 4 to 9.9 nM
